The sequences below were run on Escherichia coli TOP10 (assay: shrunken log2 fold change of peptide-encoding DNA abundance (4.5 h post-induction vs induction); higher = less antimicrobial activity (less host growth inhibition)). Conditions: time post-induction: 4.5 h; library: site-saturation at positions 5, 18, 19, 20.
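Also: peptides expressed intracellularly from a pBAD plasmid library in pooled LB shake-flask culture, induced with 0.3% L-arabinose, DNA abundance read by NGS, three biological replicates, DESeq2 with apeglm shrinkage.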

First: RRIRIRPPRLPRPRPRPIVDPRP
Second: RRIRNRPPRLPRPRPRPLEYPRP
The “shrunken log2 fold change” value of the first is higher: -0.0819 for the first, -0.816 for the second.

Going from RRIRERPPRLPRPRPRPVSWPRP to RRIRSRPPRLPRPRPRPMCCPRP, the “shrunken log2 fold change” value falls from 0.368 to 0.109.

RRIRRRPPRLPRPRPRPEMRPRP and RRIRFRPPRLPRPRPRPNEPPRP are within 0.2 log units of each other in “shrunken log2 fold change” value: 0.0735 for the first, -0.00783 for the second.

Going from RRIRSRPPRLPRPRPRPADAPRP to RRIRYRPPRLPRPRPRPKCQPRP, the “shrunken log2 fold change” value falls from 0.0403 to -0.182.

Going from RRIRARPPRLPRPRPRPFKFPRP to RRIRERPPRLPRPRPRPFNFPRP, the “shrunken log2 fold change” value falls from 0.0771 to -0.298.

Compared with RRIRGRPPRLPRPRPRPLVWPRP, RRIRQRPPRLPRPRPRPTAIPRP is lower in “shrunken log2 fold change” value: 0.952 for the first, -0.248 for the second.

First: RRIRNRPPRLPRPRPRPWLRPRP
Second: RRIRKRPPRLPRPRPRPARRPRP
The “shrunken log2 fold change” value of the first is lower: -0.0603 for the first, 0.888 for the second.

First: RRIRYRPPRLPRPRPRPFLYPRP
Second: RRIRLRPPRLPRPRPRPASLPRP
The “shrunken log2 fold change” value of the first is lower: -0.881 for the first, 0.105 for the second.

RRIRMRPPRLPRPRPRPYCFPRP and RRIRLRPPRLPRPRPRPCSVPRP are within 0.2 log units of each other in “shrunken log2 fold change” value: -0.28 for the first, -0.0962 for the second.

Compared with RRIRYRPPRLPRPRPRPSFKPRP, RRIRHRPPRLPRPRPRPQSNPRP is higher in “shrunken log2 fold change” value: -0.806 for the first, -0.288 for the second.

Going from RRIRARPPRLPRPRPRPTDVPRP to RRIRYRPPRLPRPRPRPSTHPRP, the “shrunken log2 fold change” value rises from 0.141 to 0.396.

RRIRPRPPRLPRPRPRPTRPPRP and RRIRMRPPRLPRPRPRPPLEPRP are within 0.2 log units of each other in “shrunken log2 fold change” value: 0.782 for the first, 0.873 for the second.

Going from RRIRSRPPRLPRPRPRPYIGPRP to RRIRRRPPRLPRPRPRPHHWPRP, the “shrunken log2 fold change” value rises from -0.121 to 0.0825.

Compared with RRIRARPPRLPRPRPRPRWSPRP, RRIRIRPPRLPRPRPRPNYSPRP is lower in “shrunken log2 fold change” value: 0.53 for the first, -0.937 for the second.

Going from RRIRPRPPRLPRPRPRPWCEPRP to RRIRARPPRLPRPRPRPRRQPRP, the “shrunken log2 fold change” value rises from -0.0374 to 0.453.

First: RRIRERPPRLPRPRPRPASRPRP
Second: RRIRQRPPRLPRPRPRPKNKPRP
The “shrunken log2 fold change” value of the first is higher: 0.0348 for the first, -0.29 for the second.

Going from RRIRSRPPRLPRPRPRPCRHPRP to RRIRRRPPRLPRPRPRPQPMPRP, the “shrunken log2 fold change” value rises from 0.063 to 0.606.

Compared with RRIRMRPPRLPRPRPRPGTEPRP, RRIRRRPPRLPRPRPRPDILPRP is lower in “shrunken log2 fold change” value: 0.562 for the first, 0.0906 for the second.

Going from RRIRSRPPRLPRPRPRPFLLPRP to RRIRNRPPRLPRPRPRPFPMPRP, the “shrunken log2 fold change” value rises from -0.411 to -0.0139.

Going from RRIRQRPPRLPRPRPRPLYQPRP to RRIRVRPPRLPRPRPRPPSCPRP, the “shrunken log2 fold change” value rises from -0.185 to 0.187.

Going from RRIRYRPPRLPRPRPRPLKWPRP to RRIRNRPPRLPRPRPRPVHTPRP, the “shrunken log2 fold change” value rises from -0.258 to 0.0171.

Compared with RRIRIRPPRLPRPRPRPERCPRP, RRIRARPPRLPRPRPRPEVLPRP is higher in “shrunken log2 fold change” value: 0.296 for the first, 0.709 for the second.

Going from RRIRSRPPRLPRPRPRPFYHPRP to RRIRCRPPRLPRPRPRPVQRPRP, the “shrunken log2 fold change” value rises from -0.28 to 0.123.

RRIRLRPPRLPRPRPRPDWHPRP and RRIRYRPPRLPRPRPRPDYTPRP are within 0.2 log units of each other in “shrunken log2 fold change” value: -0.264 for the first, -0.174 for the second.

Compared with RRIRRRPPRLPRPRPRPMFWPRP, RRIRTRPPRLPRPRPRPPYIPRP is lower in “shrunken log2 fold change” value: 0.506 for the first, -0.694 for the second.

First: RRIRTRPPRLPRPRPRPMRIPRP
Second: RRIRVRPPRLPRPRPRPKNTPRP
The “shrunken log2 fold change” value of the first is higher: -0.0254 for the first, -0.347 for the second.

RRIRMRPPRLPRPRPRPLPIPRP and RRIRKRPPRLPRPRPRPFFYPRP are within 0.2 log units of each other in “shrunken log2 fold change” value: -0.0881 for the first, 0.0957 for the second.

Going from RRIRKRPPRLPRPRPRPCNSPRP to RRIRVRPPRLPRPRPRPGVKPRP, the “shrunken log2 fold change” value rises from -0.0179 to 0.303.

Going from RRIRCRPPRLPRPRPRPSADPRP to RRIRWRPPRLPRPRPRPPIAPRP, the “shrunken log2 fold change” value rises from 0.0289 to 2.1.

RRIRFRPPRLPRPRPRPLGAPRP and RRIRFRPPRLPRPRPRPPQWPRP are within 0.2 log units of each other in “shrunken log2 fold change” value: 0.312 for the first, 0.384 for the second.
